In PMC9031227, “Structure-Activity Relationship Investigations of Novel Constrained Chimeric Peptidomimetics of SOCS3 Protein Targeting JAK2” (Pharmaceuticals, 2022):
Where no end group is shown, it is not given here. [ ]: non-standard residue; d: D form. S5 = C=CCCC[C@](C)(N)C(=O)O

Biological target: T1, His-tagged Catalytic Domain of JAK2 (residues 826–1132) (UniProt O60674 826-1132, RED-tris-NTA dye bound to the His tag (His-Tag labeling Kit RED-tris-NTA))
T1 construct: JAK2 (Janus Kinase 2), catalytic domain, residues 826-1132; also called JAK2 catalytic domain; Janus Kinase 2; source: bought: Carna Biosciences
T1 sequence (O60674 826-1132): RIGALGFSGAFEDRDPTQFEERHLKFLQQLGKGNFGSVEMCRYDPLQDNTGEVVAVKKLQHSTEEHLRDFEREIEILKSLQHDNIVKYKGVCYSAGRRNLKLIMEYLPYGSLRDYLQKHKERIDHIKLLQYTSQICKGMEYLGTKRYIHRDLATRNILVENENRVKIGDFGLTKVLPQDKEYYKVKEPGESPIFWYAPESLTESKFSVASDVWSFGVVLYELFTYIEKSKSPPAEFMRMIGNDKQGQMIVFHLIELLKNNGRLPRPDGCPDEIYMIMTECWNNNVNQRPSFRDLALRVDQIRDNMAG
Assay: MST; Monolith NT 115; His-tagged JAK2 catalytic domain labelled with RED-tris-NTA kept constant, peptides in increasing concentrations; standard capillaries, 25 °C, 50 mM Tris-HCl, 150 mM NaCl, 0.05% Brij35, 1 mM DTT, 10% glycerol, 15% TFE, pH 7.5; fit by Langmuir binding isotherm
Conditions: both partners purified

FSSKSEYQL[S5]FYWS[S5]VTG-OH (not fully specified; bridges not given here) [linear version of KIRCONG i/i+5 peptide]
Kd: 8 µM
